Source: patent US12312398B2, “Compositions and methods for targeting activin signaling to treat cancer” (The Johns Hopkins University, priority 2016, dated 2025)

How the values were obtained:
[1] = test system: naïve CD4+ T cells; test: In vitro Treg differentiation, intracellular Foxp3 by flow cytometry; format: cell-based, mice
Protocol: Naïve CD4+ T cells from Yap1f/f,Foxp3-yfpCre+ (KO) and Yap1 wt/wt,Foxp3ypfCre+ (WT) mice were stimulated with anti-CD3/CD28 antibodies (1 and 4 ug/ml, respectively) for 3 days in the presence of IL-2 (100 U/ml) and the indicated doses of TGFβ and exogenous Activin A. A low dose of TGF-beta and/or activin was also administered to the indicated samples (activin was dosed at 50 ng/ml on day 0 and day 2 of culture). Treg induction (via detection of intracellular Foxp3 up-regulation) was determined by flow cytometry.
To explore the involvement of Activin/ACVR1C signaling in the driving of Treg differentiation by YAP, the effects of supplemental Activin on in vitro Treg commitment was also investigated. Activation of wild type naïve CD4+ T cells without TGFI3 yielded little-to-no Foxp3 induction.
Naïve CD4+ T cells (CD4+ CD25− CD62LHi) were sorted on a FACS Aria high speed sorter. The sorted cells were activated with plate-bound aCD3 (10 ug/ml) and soluble aCD28 (2ug/ml) in a 24-well plate with the following polarizing conditions: Th1 (IL-12 (10 ng/ml), aIL-4 (10 ug/ml)), Th2 (IL-4 (10 ng/ml), aIFN-g(10 ug/ml), aIL-12 (10 ug/ml)), Th17 (IL-6 (10 ng/ml), TGF-b1 (1.25 ng/ml), IL-23 (10 ng/ml), IL-1b(10 ng/ml), aIFN-g (10 ug/ml), aIL-4 (10 ug/ml), Treg (TGFb1 (5 ng/ml), IL-2 (100IU/ml).
For extracellular staining, harvested cells were washed and incubated in PBS containing 1% FBS containing the below fluorochrome-conjugated antibodies in a U-bottom 96-well plate. For intracellular cytokine staining, harvested cells were re-stimulated in PMA and Ionomycin in the presence of Golg-Plug (BD Biosciences). After 5 hour incubation, the cells were fixed/permeablized (eBioscience) and incubated with antibodies. IFN-g PE, IFN-g APC, IL-13 PE, IL-17 APC (BD Bioscience), IL-2 APC (BD Pharmingen), Foxp3 PE (eBioscience). For cellular proliferation, Cell Trace CFSE cell proliferation kit (Invitrogen) was used per manufacture's manual.

[2] = test system: SMAD; test: SMAD phosphorylation by western blot in CD4+ T cells; format: cell-based, mice; conditions: CD4+CD25− T cells, anti-CD3/anti-CD28 24 hrs, then 12 hours treatment; Activin 5 or 10 ng/ml; TGF-β 0.5 or 2 ng/ml; versus untreated
Protocol: Cells were harvested and subjected to SDS-PAGE and Western blot with the indicated antibodies.
Since Activin has been reported to promote SMAD signaling in non-T cells (Schmierer, B., et al., J Biol Chem, 2003. 278:21197-203), whether Activin signaling in T cells could have a similar effect was examined SMAD activity was assessed by western blot analysis of SMAD phosphorylation.

## TGF-β: anti-inflammatory cytokine TGF-β, inducer of Foxp3 expression
[1]; wild type naïve CD4+ T cells, anti-CD3/CD28, IL-2 (100 U/ml), 3 days, activin 50 ng/ml on day 0 and day 2, low (suboptimal) dose TGF-β
  Foxp3+ T cell induction (Treg induction): modest up-regulation of Foxp3
[2]
  SMAD phosphorylation (phospho-SMAD): induced SMAD phosphorylation

B1: Activin: Activin (or Activin A), a dimeric member of the TGF-β Superfamily, added exogenously to T cells (protein, UniProt P08476 311-426, looked up)
Inhibin beta A chain: GLECDGKVNICCKKQFFVSFKDIGWNDWIIAPSGYHANYCEGECPSHIAGTSGSSLSFHSTVINHYRMRGHSPFANLKSCCVPTKLRPMSMLYYDDGQNIIKKDIQNMIVEECGCS
modifications: Inhibin beta A chain homodimer
[1]; Foxp3-driven YAP knockout (Foxp3Cre+/Yap1f/f) naïve CD4+ T cells, anti-CD3/CD28, IL-2, 3 days
  Foxp3+ T cell induction (Treg induction): not seen
[1]; wild type naïve CD4+ T cells, anti-CD3/CD28, IL-2 (100 U/ml), 3 days, activin 50 ng/ml on day 0 and day 2, low (suboptimal) dose TGF-β, listed as Activin A
  Foxp3+ T cell induction (Treg induction): generated a population of Foxp3+ cells
[2]
  SMAD phosphorylation (phospho-SMAD): elevation of phospho-SMAD
